Experimental data as given in the supplement of paper PMC10567573.
± gives the standard deviation.

Experiment: protein stability index of a GFP-peptide fusion (GPS, HEK-293T) (PSI 1-6); higher = more stable
[1] = treatment: DMSO, c terminus: a fixed tail appended
[2] = treatment: MLN4924 1 uM, 8 h, c terminus: a fixed tail appended
[3] = treatment: DMSO, c terminus: native
[4] = treatment: MLN4924 1 uM, 8 h, c terminus: native
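Further: 24-mer peptide tiles fused after GFP, lentivirally expressed, FACS-sorted into six equal bins by GFP/DsRed ratio, decoded by Illumina sequencing, PSI is the read-weighted mean bin number.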

Sequence | protein stability index [1] | protein stability index [2] | protein stability index [3] | protein stability index [4]
RQPVSFHRVKLTNSTLDPHGHLIL [TBX6] | 2.27 ± 0.16 | 2.27 ± 0.34 | – | –
RQRSSLAKINIVYQELNYRSVEEA [SCNN1D] | 3.41 ± 0.24 | 3.44 ± 0.22 | – | –
RQVVQDLLKAGAEVNVLNDMRDTP [OSBPL1A] | 4.45 ± 0.21 | 4.24 ± 0.25 | – | –
RRENSTLDVECHEKEKHVNQLQTK [SASS6] | 5.13 ± 0.11 | 5.26 ± 0.23 | – | –
RRFQQTQYLALPERAELAASLGLT [DLX1] | 2.95 ± 0.21 | 3.12 ± 0.099 | – | –
RRITYLQNPKDCSKAKKLVCNINK [FUT8] | 2.77 ± 0.28 | 3.05 ± 0.26 | – | –
RRRIEEERLRLEQQKQQIMAALNS [ACBD3] | 4.05 ± 0.14 | 4.58 ± 0.2 | – | –
RRSISSSRSENVLSRLSLMAMPNG [PSD2] | 3.54 ± 0.17 | 3.56 ± 0.19 | – | –
RRSQQQQVPVVDFQAELRQAFLAE [SNURF] | 3.84 ± 0.37 | 3.86 ± 0.28 | – | –
RSGIQFGSWGSFQLPGLLNFGEFK [CLCN6] | 2.29 ± 0.26 | 2.4 ± 0.3 | – | –
RVKLEEDPDGEEGSSIPWNHLPDP [ZNF24] | 5.18 ± 0.2 | 5.19 ± 0.17 | – | –
RYPVCKFPSLQVTAILIECGADVN [FEM1C] | 2.71 ± 0.72 | 2.65 ± 0.61 | – | –
SAAWMKERTSPGAIHYCASTSEES [SPDEF] | 4.66 ± 0.13 | 4.72 ± 0.3 | – | –
SALASDRFNLILADTNSDRLFTVN [DCAF4] | 2.61 ± 0.18 | 2.69 ± 0.32 | – | –
SASDGSSFVVARYFPAGNVVNEGF [GLIPR2] | 2.58 ± 0.29 | 2.58 ± 0.35 | – | –
SCKADVVELLLSHADCDRRSRIEA [FEM1B] | 2.42 ± 0.17 | 2.65 ± 0.29 | – | –
SCSQGSGILHYAHGDSQQTHLLKQ [CRY1] | 3.29 ± 0.16 | 3.31 ± 0.2 | – | –
SDDFCTFQMVLEGGVCCTVTLNFN [GFOD1] | 2.79 ± 0.48 | 3.02 ± 0.29 | – | –
SDLGFEVKCFNDLKAEELLLKIHE [CASP6] | 2.48 ± 0.28 | 2.69 ± 0.37 | – | –
SDQETLRIHERLVAGSLAGAIAQS [SLC25A25] | 3.87 ± 0.18 | 3.8 ± 0.43 | – | –
SEKKTISFQGCMAQLFMDHLFAGA [OR4A15] | 2.56 ± 0.73 | 2.66 ± 0.79 | – | –
SELQKELKKVKTAHSNDGDCKTQ [DPCD] | – | – | 4.94 ± 0.27 | 5.28 ± 0.14
SELTSLCQSVLEDFNLCLFYLPSS [SMG5] | 2.65 ± 0.64 | 2.42 ± 0.39 | – | –

Sequence | protein stability index [1] | protein stability index [2] | protein stability index [3] | protein stability index [4]
SEQCYYIFGDLCGNMANLSLHDHD [DVL3] | 2.96 ± 0.19 | 2.91 ± 0.27 | – | –
SESGSLGNSSGSDVTSLSSQLPDT [ISL2] | 5.43 ± 0.056 | 5.41 ± 0.14 | – | –
SFRGAFSNSEKAKNIFRIRFHDPS [NET1] | 2.59 ± 0.34 | 2.65 ± 0.12 | – | –
SGAFQWEELEEDIRKKLKDSGDVS [RHOBTB3] | 5.17 ± 0.27 | 5.2 ± 0.34 | – | –
SGGGGSSSNFHINVEESVDGQVVS [KRT15] | 5.26 ± 0.1 | 5.21 ± 0.26 | – | –
SGGPPPKRSAPSGPVRSSSGMGGR [RBMX] | 4.59 ± 0.29 | 4.51 ± 0.21 | – | –
SGLGYIAGSKVKDMAGDWHWALRV [SPNS1] | 2.64 ± 0.74 | 2.38 ± 0.3 | – | –
SGSQMSHNAVTSHQRPGWPGQPHS [NCF4] | 3.95 ± 0.34 | 3.94 ± 0.29 | – | –
SGSSYCSFPPSLSSSSSSSPTSGS [LURAP1L] | 4.32 ± 0.13 | 4.42 ± 0.17 | – | –
SGTFAPISDRYSPELRQLVLSLLS [NEK8] | 2.12 ± 0.21 | 2.25 ± 0.38 | – | –
SHHHHQSRGACTSHDPQSSRGSRR [KCNA4] | 5.11 ± 0.26 | 5.13 ± 0.15 | – | –
SHLQAAAQTPPRPGPPSAPPPPPK [SCNN1D] | 5.09 ± 0.26 | 5.22 ± 0.14 | – | –
SIKGSSGLGGGSSRTSCRLSGGLG [KRT17] | 3.39 ± 0.19 | 3.42 ± 0.28 | – | –
SITVSKVDKDQPSILNSCEDPVPG [FBXO34] | 5.25 ± 0.22 | 5.25 ± 0.12 | – | –
SKPSSDLLDLQPDFSSGGAAAAAA [SNAP91] | 4.99 ± 0.37 | 5.027 ± 0.049 | – | –
SKSSHPLIRSLFHGFLFMIFQIGV [SOAT1] | 2.81 ± 0.84 | 2.72 ± 0.18 | – | –
SLDWETFEQYCAWQLFLAHNIPLE [INTS3] | 2.3 ± 0.43 | 2.16 ± 0.32 | – | –
SLFVLDQNDNAPEILYPALPTDGS [PCDHGA10] | 3.69 ± 0.33 | 3.84 ± 0.32 | – | –
SLHKHLTIRLNISDVNDNAPRFNQ [PCDHGC5] | 2.32 ± 0.34 | 2.28 ± 0.27 | – | –
SLIPLILDLMKEWIAHSEKLPRKV [SPACA9] | 2.28 ± 0.46 | 2.02 ± 0.36 | – | –
SLLDELLEVDHIRTIYHMFIALLI [SOAT1] | 2.01 ± 0.27 | 2.11 ± 0.56 | – | –
SLSEALDLIESDPDAWCDLSKFDL [MYBL2] | 3.61 ± 0.23 | 4.13 ± 0.56 | – | –
SLSFEDELVYADDYIMDEDQSKLA [ESRRG] | 5.43 ± 0.31 | 5.41 ± 0.27 | – | –

Sequence | protein stability index [1] | protein stability index [2] | protein stability index [3] | protein stability index [4]
SLSHSPGCSSTQGNGRPGRPSQYR [LCOR] | 4.44 ± 0.13 | 4.67 ± 0.22 | – | –
SLSLFGCTNIFYEEENPGGCEDEY [ZER1] | 3.97 ± 0.14 | 4.06 ± 0.23 | – | –
SMPQKFLGDKGLSDTPYDSSASYE [IKZF1] | 4.74 ± 0.088 | 4.73 ± 0.34 | – | –
SNPELDVLLLGSVDGRHLLRTLSR [DNAAF3] | 2.5 ± 0.28 | 2.56 ± 0.32 | – | –
SNVKVETQSDEENGRACEMNGEEC [IKZF1] | 5.75 ± 0.27 | 5.25 ± 0.36 | – | –
SPESESDHEHEEADLELSLPECLE [GNAS] | 5.4 ± 0.38 | 5.57 ± 0.26 | – | –
SPIKKVRKSLALDIVDEDVKLMMS [MYBL2] | 3.6 ± 0.34 | 3.68 ± 0.43 | – | –
SPMSAATLGGLNPSPSEVITPWTP [SMTNL2] | 4.44 ± 0.18 | 4.46 ± 0.28 | – | –
SPPLHANTSLHVFVLDENDNAPAV [PCDHGC5] | 3.94 ± 0.23 | 3.81 ± 0.45 | – | –
SQLRLVCKRMDLVCQRMLNQGFLK [FBXO28] | 2.38 ± 0.42 | 2.46 ± 0.2 | – | –
SRGGPPPPPPPPHNSGPPPPPARG [WASL] | 5.13 ± 0.26 | 5.07 ± 0.07 | – | –
SRGSRRRRRQRSEKKKAHYRQSSF [KCNA4] | 4.6 ± 0.29 | 4.8 ± 0.17 | – | –
SRGSSVSMSGGRFRCPTCRHEVIM [TRIM63] | 2.43 ± 0.56 | 2.4 ± 0.38 | – | –
SRKIAVEDENDLEELNNGEPQTEH [MIA2] | 5.61 ± 0.13 | 5.37 ± 0.29 | – | –
SRRQEKSAGDADPENGEIKPASKP [ELOA2] | 5.53 ± 0.19 | 5.69 ± 0.1 | – | –
SRSAILIQHRRTHTDSKYEHAIAE [ZNF396] | 3.63 ± 0.15 | 3.72 ± 0.19 | – | –
SSADDASAWSNIQEAPLQDDSCLN [FAN1] | 5.26 ± 0.26 | 5.33 ± 0.27 | – | –
SSCENKRADLVFIIDSSRSVNTHD [MATN2] | 2.81 ± 0.22 | 2.92 ± 0.13 | – | –
SSIIHEIDSILGNKPYSKKDYRS [KCNAB2] | – | – | 3.02 ± 0.37 | 3.53 ± 0.28
SSSKRYTMSRSLDGASVNENHEIY [EPB41L3] | 4.11 ± 0.63 | 4 ± 0.45 | – | –
SSSRGSSHCDSPSPQEDGQIMFDV [BNIP3L] | 4.81 ± 0.26 | 4.91 ± 0.18 | – | –
SSSRNSHLVQHQHPNSRKSSAGGA [ZNF8] | 4.71 ± 0.43 | 4.83 ± 0.23 | – | –
SSSSQIGNDSFQLQVTEDVNSSIK [CLCN6] | 5.14 ± 0.06 | 4.87 ± 0.18 | – | –

Sequence | protein stability index [1] | protein stability index [2] | protein stability index [3] | protein stability index [4]
SSSSSGVLMVGPNFRVGKKIGCGN [CSNK1G1] | 3.58 ± 0.34 | 3.68 ± 0.11 | – | –
SSVEDLKAKFCSTVANDVMLRTGL [NETO1] | 2.97 ± 0.14 | 3.07 ± 0.14 | – | –
SSVTAAVSGLLVGYELGIISGALL [SLC2A12] | 2.8 ± 0.2 | 2.82 ± 0.18 | – | –
STPVRREVTDKEQEFAARAAKQLE [EPB41L3] | 5.28 ± 0.2 | 5.27 ± 0.21 | – | –
STQLEMQLEKPKPVKPVTFSTGIK [MNAT1] | 4.28 ± 0.16 | 4.43 ± 0.22 | – | –
SVKLRGSSLFMDTEKSGKREFDVR [WEE1] | 3.86 ± 0.36 | 3.94 ± 0.095 | – | –
SVRMRRAEKSVAPSNTGSRTTSVR [NEK8] | 4.62 ± 0.24 | 4.6 ± 0.26 | – | –
SVSSCDQEHQSALEEAKQPKNDNV [SMOC2] | 5.38 ± 0.21 | 5.64 ± 0.082 | – | –
SYFSGQGSDTGASLKLASSELERL [JUNB] | 4.182 ± 0.04 | 4.427 ± 0.038 | – | –
SYLIEKVKRKKNVLRLCCKKLKIF [PRAME] | 3.23 ± 0.36 | 3.22 ± 0.28 | – | –
SYPMRRSYRYKLLNWAYQQVQQNK [STEAP1] | 2.34 ± 0.19 | 2.36 ± 0.25 | – | –
TASDGGDPLRSGTVLVSVTVFDAN [PCDHGA10] | 2.31 ± 0.52 | 2.13 ± 0.091 | – | –
TASSLVKINLQGDIVDRGSTNLGV [ADD1] | 3.36 ± 0.68 | 3.36 ± 0.25 | – | –
TDHQTPPTSPVQGTTPQISPSTLI [HDAC6] | 4.93 ± 0.16 | 4.86 ± 0.27 | – | –
TDILDLENQRENLEQPFLSVFKKG [PLEKHN1] | 4.52 ± 0.07 | 4.24 ± 0.21 | – | –
TDILPQMITLSEAYIQIWKRRDND [USP39] | 2.82 ± 0.25 | 2.79 ± 0.14 | – | –
TDQAIFYAVTPLPWCPHLVAVCPI [HDAC6] | 3.09 ± 0.61 | 3.22 ± 0.41 | – | –
TDRDEGANGEVTYSFRKLPDTQLL [PCDHGA10] | 4.44 ± 0.13 | 4.41 ± 0.22 | – | –
TEDFWRMLWEHNSTIVVMLTKLRE [PTPRD] | 2.21 ± 0.25 | 2.23 ± 0.27 | – | –
TEEDDGFVDILESDLKDDDAVPPG [CDC25B] | 5.46 ± 0.27 | 5.4 ± 0.12 | – | –
